{
  "source": "patent US20170088600A1",
  "key": {"[1]": {"biological_target": "CD155-Fc (CD155 / poliovirus receptor Fc fusion) (UniProt P15151)", "sequence (P15151 21-343)": "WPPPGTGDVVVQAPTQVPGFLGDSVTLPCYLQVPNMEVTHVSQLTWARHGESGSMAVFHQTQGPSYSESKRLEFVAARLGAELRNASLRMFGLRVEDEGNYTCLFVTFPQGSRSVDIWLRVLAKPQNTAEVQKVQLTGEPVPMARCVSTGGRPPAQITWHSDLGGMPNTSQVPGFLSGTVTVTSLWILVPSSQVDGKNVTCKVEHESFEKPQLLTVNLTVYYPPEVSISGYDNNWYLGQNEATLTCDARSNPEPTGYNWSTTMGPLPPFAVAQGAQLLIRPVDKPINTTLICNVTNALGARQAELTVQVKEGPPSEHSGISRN", "assay": "SPR, KDave"}, "[2]": {"biological_target": "TRAIL-R2-Fc (human TRAIL-R2 aa 58-184, thrombin site, human IgG1 Fc), wild type (human) (UniProt O14763)", "sequence (O14763 other isoform, or with tags, fused parts or gaps limits assumed)": "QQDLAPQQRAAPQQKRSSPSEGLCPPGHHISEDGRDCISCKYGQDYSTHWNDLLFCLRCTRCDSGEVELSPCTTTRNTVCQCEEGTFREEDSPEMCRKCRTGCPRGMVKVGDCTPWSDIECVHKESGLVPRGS", "assay": "SPR, KDave"}, "[3]": {"biological_target": "TRAIL-R1-Fc (human TRAIL-R1 ectodomain Fc fusion) (human) (UniProt O00220)", "sequence (O00220 24-239)": "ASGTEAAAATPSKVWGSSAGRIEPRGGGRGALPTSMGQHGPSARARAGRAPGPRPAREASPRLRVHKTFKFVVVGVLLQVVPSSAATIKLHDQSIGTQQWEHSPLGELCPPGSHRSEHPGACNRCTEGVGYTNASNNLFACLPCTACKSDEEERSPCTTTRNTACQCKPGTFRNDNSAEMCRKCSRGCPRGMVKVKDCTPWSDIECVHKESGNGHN", "assay": "SPR, average of KDeq and kinetic KD (KDave)"}, "[4]": {"biological_target": "TRAIL-R2-Fc (human TRAIL-R2 aa 58-184, thrombin site, human IgG1 Fc), wild type (human) (UniProt O14763)", "assay": "SPR, WT TRAIL-R2-Fc captured, UL141 as analyte"}, "[5]": {"biological_target": "TRAIL-R2-Fc D148A (human) (UniProt O14763)", "sequence (O14763 other isoform, or with tags, fused parts or gaps D148A D148A limits assumed)": "as the sequence (O14763 other isoform, or with tags, fused parts or gaps limits assumed) above, with D91A counted along it", "assay": "SPR, mutant TRAIL-R2-Fc captured, UL141 as analyte"}, "[6]": {"biological_target": "TRAIL-R2-Fc E78A/D109A (human) (UniProt O14763)", "sequence (O14763 other isoform, or with tags, fused parts or gaps E78A D109A E78A D109A limits assumed)": "as the sequence (O14763 other isoform, or with tags, fused parts or gaps limits assumed) above, with E21A, D52A counted along it", "assay": "SPR, mutant TRAIL-R2-Fc captured, UL141 as analyte"}, "[7]": {"biological_target": "TRAIL-R2-Fc F112A (human) (UniProt O14763)", "sequence (O14763 other isoform, or with tags, fused parts or gaps F112A F112A limits assumed)": "as the sequence (O14763 other isoform, or with tags, fused parts or gaps limits assumed) above, with F55A counted along it", "assay": "SPR, mutant TRAIL-R2-Fc captured, UL141 as analyte"}, "[8]": {"biological_target": "TRAIL-R2-Fc K155A (human) (UniProt O14763)", "sequence (O14763 other isoform, or with tags, fused parts or gaps K155A K155A limits assumed)": "as the sequence (O14763 other isoform, or with tags, fused parts or gaps limits assumed) above, with K98A counted along it", "assay": "SPR, mutant TRAIL-R2-Fc captured, UL141 as analyte"}, "[9]": {"biological_target": "TRAIL-R2-Fc L110A/L114A (human) (UniProt O14763)", "sequence (O14763 other isoform, or with tags, fused parts or gaps L110A L114A L110A L114A limits assumed)": "as the sequence (O14763 other isoform, or with tags, fused parts or gaps limits assumed) above, with L53A, L57A counted along it", "assay": "SPR, mutant TRAIL-R2-Fc captured, UL141 as analyte"}, "[10]": {"biological_target": "TRAIL-R2-Fc M152A (human) (UniProt O14763)", "sequence (O14763 other isoform, or with tags, fused parts or gaps M152A M152A limits assumed)": "as the sequence (O14763 other isoform, or with tags, fused parts or gaps limits assumed) above, with M95A counted along it", "assay": "SPR, mutant TRAIL-R2-Fc captured, UL141 as analyte"}, "[11]": {"biological_target": "TRAIL-R2-Fc M152A/R154A/K155A (human) (UniProt O14763)", "sequence (O14763 other isoform, or with tags, fused parts or gaps M152A R154A K155A M152A R154A K155A limits assumed)": "as the sequence (O14763 other isoform, or with tags, fused parts or gaps limits assumed) above, with M95A, R97A, K98A counted along it", "assay": "SPR, mutant TRAIL-R2-Fc captured, UL141 as analyte"}, "[12]": {"biological_target": "TRAIL-R2-Fc P150A (human) (UniProt O14763)", "sequence (O14763 other isoform, or with tags, fused parts or gaps P150A P150A limits assumed)": "as the sequence (O14763 other isoform, or with tags, fused parts or gaps limits assumed) above, with P93A counted along it", "assay": "SPR, mutant TRAIL-R2-Fc captured, UL141 as analyte"}, "[13]": {"biological_target": "TRAIL-R2-Fc R154A (human) (UniProt O14763)", "sequence (O14763 other isoform, or with tags, fused parts or gaps R154A R154A limits assumed)": "as the sequence (O14763 other isoform, or with tags, fused parts or gaps limits assumed) above, with R97A counted along it", "assay": "SPR, mutant TRAIL-R2-Fc captured, UL141 as analyte"}, "[14]": {"biological_target": "TRAIL-R2-Fc V167A (human) (UniProt O14763)", "sequence (O14763 other isoform, or with tags, fused parts or gaps V167A V167A limits assumed)": "as the sequence (O14763 other isoform, or with tags, fused parts or gaps limits assumed) above, with V110A counted along it", "assay": "SPR, mutant TRAIL-R2-Fc captured, UL141 as analyte"}, "[15]": {"biological_target": "CD155-Fc (CD155 / poliovirus receptor Fc fusion) (UniProt P15151)", "assay": "SPR kinetic fit, 1:1 Langmuir; CD155-Fc captured, UL141 analyte"}, "[16]": {"biological_target": "TRAIL-R1-Fc (human TRAIL-R1 ectodomain Fc fusion) (human) (UniProt O00220)", "assay": "SPR kinetic fit, 1:1 Langmuir; TRAIL-R1-Fc captured, UL141 analyte"}, "[17]": {"biological_target": "TRAIL-R2-Fc (human TRAIL-R2 aa 58-184, thrombin site, human IgG1 Fc), wild type (human) (UniProt O14763)", "assay": "SPR kinetic fit, 1:1 Langmuir; TRAIL-R2-Fc captured, UL141 analyte"}, "[18]": {"biological_target": "TRAIL-R1-Fc (human TRAIL-R1 ectodomain Fc fusion) (human) (UniProt O00220)", "assay": "SPR, steady-state analysis (KDeq); TRAIL-R1-Fc captured, UL141 analyte"}},
  "note": "Values joined by “and” are separate entries in the source; they are usually repeats but may differ in a detail not shown here. Equal entries are not always repeated.",
  "data": [
    {"substance": "UL141 ectodomain of human cytomegalovirus (HCMV FIX strain), C-terminal poly-histidine tag (ligand)", "values": [
      {"measurement": "Kd", "setting": "[1]", "result": 2, "unit": "nM"},
      {"measurement": "Kd", "setting": "[2]", "result": 6, "unit": "nM"},
      {"measurement": "Kd", "setting": "[3]", "result": 2300, "unit": "nM"},
      {"measurement": "Kd", "setting": "[4]", "result": "6 nM and 5.95 nM"},
      {"measurement": "koff", "setting": "[4]", "result": "7.21e-05", "unit": "s⁻¹"},
      {"measurement": "kon", "setting": "[4]", "result": 12100, "unit": "M⁻¹ s⁻¹"},
      {"measurement": "Kd", "setting": "[5]", "result": 55.3, "unit": "nM"},
      {"measurement": "fold lower binding than wild type", "setting": "[5]", "result": 10, "unit": "fold"},
      {"measurement": "koff", "setting": "[5]", "result": 0.0013, "unit": "s⁻¹"},
      {"measurement": "kon", "setting": "[5]", "result": 23500, "unit": "M⁻¹ s⁻¹"},
      {"measurement": "Kd", "setting": "[6]", "result": 60.4, "unit": "nM"},
      {"measurement": "fold lower binding than wild type", "setting": "[6]", "result": 10, "unit": "fold"},
      {"measurement": "koff", "setting": "[6]", "result": 0.00151, "unit": "s⁻¹"},
      {"measurement": "kon", "setting": "[6]", "result": 25000, "unit": "M⁻¹ s⁻¹"},
      {"measurement": "Kd", "setting": "[7]", "result": 630, "unit": "nM"},
      {"measurement": "fold lower binding than wild type", "setting": "[7]", "result": 100, "unit": "fold"},
      {"measurement": "koff", "setting": "[7]", "result": 0.00566, "unit": "s⁻¹"},
      {"measurement": "kon", "setting": "[7]", "result": 8980, "unit": "M⁻¹ s⁻¹"},
      {"measurement": "Kd", "setting": "[8]", "result": 7.74, "unit": "nM"},
      {"measurement": "koff", "setting": "[8]", "result": 0.00038, "unit": "s⁻¹"},
      {"measurement": "kon", "setting": "[8]", "result": 49100, "unit": "M⁻¹ s⁻¹"},
      {"measurement": "Kd", "setting": "[9]", "result": 42.7, "unit": "nM"},
      {"measurement": "fold decrease in binding affinity versus wild type", "setting": "[9]", "result": 7, "unit": "fold"},
      {"measurement": "fold lower binding than wild type", "setting": "[9]", "result": 10, "unit": "fold"},
      {"measurement": "koff", "setting": "[9]", "result": 0.00064, "unit": "s⁻¹"},
      {"measurement": "kon", "setting": "[9]", "result": 15000, "unit": "M⁻¹ s⁻¹"},
      {"measurement": "Kd", "setting": "[10]", "result": 7.49, "unit": "nM"},
      {"measurement": "koff", "setting": "[10]", "result": 0.000382, "unit": "s⁻¹"},
      {"measurement": "kon", "setting": "[10]", "result": 51000, "unit": "M⁻¹ s⁻¹"},
      {"measurement": "Kd", "setting": "[11]", "result": 7.39, "unit": "nM"},
      {"measurement": "koff", "setting": "[11]", "result": 0.00027, "unit": "s⁻¹"},
      {"measurement": "kon", "setting": "[11]", "result": 36500, "unit": "M⁻¹ s⁻¹"},
      {"measurement": "Kd", "setting": "[12]", "result": 8.32, "unit": "nM"},
      {"measurement": "koff", "setting": "[12]", "result": 0.000391, "unit": "s⁻¹"},
      {"measurement": "kon", "setting": "[12]", "result": 47000, "unit": "M⁻¹ s⁻¹"},
      {"measurement": "Kd", "setting": "[13]", "result": 6.26, "unit": "nM"},
      {"measurement": "koff", "setting": "[13]", "result": 0.000243, "unit": "s⁻¹"},
      {"measurement": "kon", "setting": "[13]", "result": 38800, "unit": "M⁻¹ s⁻¹"},
      {"measurement": "Kd", "setting": "[14]", "result": 15.5, "unit": "nM"},
      {"measurement": "fold lower binding than wild type", "setting": "[14]", "result": 2.5, "unit": "fold"},
      {"measurement": "koff", "setting": "[14]", "result": 0.00048, "unit": "s⁻¹"},
      {"measurement": "kon", "setting": "[14]", "result": 31000, "unit": "M⁻¹ s⁻¹"},
      {"measurement": "Kd", "setting": "[15]", "result": 1.97, "unit": "nM"},
      {"measurement": "koff", "setting": "[15]", "result": 0.000346, "unit": "s⁻¹"},
      {"measurement": "kon", "setting": "[15]", "result": 176000, "unit": "M⁻¹ s⁻¹"},
      {"measurement": "Kd", "setting": "[16]", "result": 2330, "unit": "nM"},
      {"measurement": "koff", "setting": "[16]", "result": 0.014, "unit": "s⁻¹"},
      {"measurement": "kon", "setting": "[16]", "result": 6020, "unit": "M⁻¹ s⁻¹"},
      {"measurement": "Kd", "setting": "[17]", "result": 5.96, "unit": "nM"},
      {"measurement": "koff", "setting": "[17]", "result": "7.21e-05", "unit": "s⁻¹"},
      {"measurement": "kon", "setting": "[17]", "result": 12100, "unit": "M⁻¹ s⁻¹"},
      {"measurement": "Kd", "setting": "[18]", "result": 2.27, "unit": "nM"}
    ]}
  ]
}
